Data published in publication doi:10.1101/2023.06.09.544317.

Biological target: tRNA pseudouridine synthase from archaea (Q8U2C1) (P. furiosus)
Test: mass photometry

- stoichiometry N: 2
Substance: tRNA pseudouridine synthase from archaea (Q8U2C1) (enzyme)
